Measured values: the Immune Epitope Database (IEDB)

Legend:
Assay in all cases: IEDB peptide-MHC binding, purified MHC/competitive/radioactivity; ≥ and ≤ were set here for values at or beyond the usual limits of such assays
[1] = molecular target: HLA-A*02:01
[2] = molecular target: HLA-A*02:02
[3] = molecular target: HLA-A*02:03
[4] = molecular target: HLA-A*02:06
[5] = molecular target: HLA-A*68:02
[6] = source organism: Vaccinia virus WR
[7] = source organism: Hepacivirus hominis

For NVIEDITFL, which IC50 [1, 6] is on record?
The IC50 was 304 nM.

And the IC50 [2, 6]?
Its IC50 is 146 nM.

And the IC50 [3, 6]?
The IC50 was 300 nM.

What about the IC50 [4, 6] of the same sequence?
Its IC50 is 26 nM.

And the IC50 [5, 6]?
The IC50 was 31 nM.

With LMIFISSFL as the sequence, how does the IC50 [1, 6] read?
Its IC50 is 0.32 nM.

What about the IC50 [2, 6] of the same sequence?
Its IC50 is 0.65 nM.

What about the IC50 [3, 6] of the same sequence?
The IC50 was 0.13 nM.

What about the IC50 [4, 6] of the same sequence?
Its IC50 is 18 nM.

And the IC50 [5, 6]?
Its IC50 is 35 nM.

How did the IC50 [1, 6] turn out when LAYYNSCMLT was run?
The IC50 was 485 nM.

What about the IC50 [2, 6] of the same sequence?
The IC50 was 12 nM.

And the IC50 [3, 6]?
Its IC50 is 16 nM.

What about the IC50 [4, 6] of the same sequence?
Its IC50 is 86 nM.

And the IC50 [5, 6]?
The IC50 was 4.9 nM.

For ITYCLVTHM, which IC50 [1, 6] is on record?
Its IC50 is 3100 nM.

What about the IC50 [2, 6] of the same sequence?
Its IC50 is 1280 nM.

What about the IC50 [3, 6] of the same sequence?
Its IC50 is 2330 nM.

And the IC50 [4, 6]?
The IC50 was 1410 nM.

What about the IC50 [5, 6] of the same sequence?
The IC50 was 1730 nM.

ILMTHFFSI was tested. Which IC50 [1, 7] did it give?
Its IC50 is 1.3 nM.

And the IC50 [2, 7]?
The IC50 was 6.7 nM.

What about the IC50 [3, 7] of the same sequence?
The IC50 was 1 nM.

And the IC50 [4, 7]?
The IC50 was 4.7 nM.

What about the IC50 [5, 7] of the same sequence?
The IC50 was 185 nM.

For YMLFTKFFYL, which IC50 ([1]; source organism: SARS-CoV1) is on record?
The IC50 was 5.1 nM.

What about the IC50 ([2]; source organism: SARS-CoV1) of the same sequence?
The IC50 was 48 nM.

And the IC50 ([3]; source organism: SARS-CoV1)?
Its IC50 is 46 nM.

What about the IC50 ([4]; source organism: SARS-CoV1) of the same sequence?
Its IC50 is 20 nM.

What about the IC50 ([5]; source organism: SARS-CoV1) of the same sequence?
The IC50 was 9.9 nM.

IMDKEQLLKI was tested. Which IC50 [1, 6] did it give?
Its IC50 is 890 nM.

What about the IC50 [2, 6] of the same sequence?
The IC50 was 311 nM.

What about the IC50 [3, 6] of the same sequence?
Its IC50 is 288 nM.

And the IC50 [4, 6]?
The IC50 was 1340 nM.

What about the IC50 [5, 6] of the same sequence?
The IC50 was 3240 nM.

For FMSHVKSVT, which IC50 [1, 6] is on record?
The IC50 was 873 nM.

What about the IC50 [2, 6] of the same sequence?
Its IC50 is 508 nM.

What about the IC50 [3, 6] of the same sequence?
The IC50 was 181 nM.

And the IC50 [4, 6]?
Its IC50 is 4320 nM.

And the IC50 [5, 6]?
The IC50 was 2600 nM.

What does the source list for AVLSEYETMV?
IC50 [1, 6]: 9.7 nM; IC50 [2, 6]: 0.76 nM; IC50 [3, 6]: 1.5 nM; IC50 [4, 6]: 24 nM; IC50 [5, 6]: 1770 nM

FTILEYLYI was tested. Which IC50 [1, 6] did it give?
The IC50 was 68 nM.

And the IC50 [2, 6]?
The IC50 was 1560 nM.

What about the IC50 [3, 6] of the same sequence?
The IC50 was 169 nM.

And the IC50 [4, 6]?
The IC50 was 267 nM.

And the IC50 [5, 6]?
The IC50 was 22 nM.

Which IC50 [1, 6] does the source give for AAIDRQVSV here?
Its IC50 is 1470 nM.

And the IC50 [2, 6]?
The IC50 was 933 nM.

What about the IC50 [3, 6] of the same sequence?
Its IC50 is 19 nM.

What about the IC50 [4, 6] of the same sequence?
The IC50 was 15 nM.

And the IC50 [5, 6]?
Its IC50 is 1440 nM.

For RVFKKIMSI, which IC50 [1, 6] is on record?
The IC50 was 80 nM.

What about the IC50 [2, 6] of the same sequence?
Its IC50 is 350 nM.

What about the IC50 [3, 6] of the same sequence?
Its IC50 is 0.18 nM.

What about the IC50 [4, 6] of the same sequence?
The IC50 was 75 nM.

What about the IC50 [5, 6] of the same sequence?
The IC50 was 170 nM.

Which IC50 [1, 7] does the source give for LIVMLLFAGV here?
The IC50 was 1470 nM.

What about the IC50 [2, 7] of the same sequence?
The IC50 was 3390 nM.

What about the IC50 [3, 7] of the same sequence?
The IC50 was 358 nM.

And the IC50 [4, 7]?
Its IC50 is 169 nM.

What about the IC50 [5, 7] of the same sequence?
Its IC50 is 4290 nM.

What does the source list for YASLTTIGT?
IC50 [1, 6]: 868 nM; IC50 [2, 6]: 409 nM; IC50 [3, 6]: 144 nM; IC50 [4, 6]: 161 nM; IC50 [5, 6]: 52 nM

ETIEILRNYL was tested. Which IC50 [1, 6] did it give?
The IC50 was 944 nM.

What about the IC50 [2, 6] of the same sequence?
The IC50 was 474 nM.

And the IC50 [3, 6]?
Its IC50 is 1410 nM.

What about the IC50 [4, 6] of the same sequence?
Its IC50 is 0.28 nM.

What about the IC50 [5, 6] of the same sequence?
Its IC50 is 0.13 nM.

For FAISYCRAFI, which IC50 [1, 6] is on record?
Its IC50 is 1970 nM.

And the IC50 [2, 6]?
Its IC50 is 105 nM.

And the IC50 [3, 6]?
Its IC50 is 38 nM.

And the IC50 [4, 6]?
The IC50 was 35 nM.

What about the IC50 [5, 6] of the same sequence?
Its IC50 is 1.7 nM.

Which results are given for VITYCLVTHM?
IC50 [1, 6]: 1320 nM; IC50 [2, 6]: 478 nM; IC50 [3, 6]: 582 nM; IC50 [4, 6]: 2620 nM; IC50 [5, 6]: 387 nM

With SIISLFYTFA as the sequence, how does the IC50 [1, 6] read?
The IC50 was 205 nM.

What about the IC50 [2, 6] of the same sequence?
The IC50 was 111 nM.

And the IC50 [3, 6]?
The IC50 was 28 nM.

What about the IC50 [4, 6] of the same sequence?
The IC50 was 94 nM.

What about the IC50 [5, 6] of the same sequence?
Its IC50 is 51 nM.
